From PMC4537474 (Protein & Cell, 2015)

Tests used:
FadR_ec [1] = target: T1, FadR_ec (Escherichia coli (K-12), UniProt P0A8V6 1-239); assay: EMSA; 5 pmol protein, 0.2 pmol probe; EMSA: Roche binding buffer, 20 min, room temperature, 0.2 pmol DIG probe (10 uL in Fig. 6), 7% native PAGE; SPR: Biacore3000, 20 mM Tris-HCl pH 7.5, 200 mM NaCl
FadR_she [2] = target: T2, FadR_she (Shewanella oneidensis, UniProt Q8ED80 1-240); assay: as above
FadR_vc = FadR_vc (Vibrio cholerae, UniProt Q9KQU8 1-279); assay: EMSA; 5 pmol protein; super-shifted band attributed to multimer; EMSA: Roche binding buffer, 20 min, room temperature, 0.2 pmol DIG probe (10 uL in Fig. 6), 7% native PAGE; SPR: Biacore3000, 20 mM Tris-HCl pH 7.5, 200 mM NaCl
FadR_she [3] = target: T2, FadR_she; assay: SPR; 2:1 (FadR dimer per DNA); EMSA: Roche binding buffer, 20 min, room temperature, 0.2 pmol DIG probe (10 uL in Fig. 6), 7% native PAGE; SPR: Biacore3000, 20 mM Tris-HCl pH 7.5, 200 mM NaCl
FadR_ec [4] = target: T1, FadR_ec; assay: EMSA; C10:0-CoA ~50 pmol; EMSA: Roche binding buffer, 20 min, room temperature, 0.2 pmol DIG probe (10 uL in Fig. 6), 7% native PAGE; SPR: Biacore3000, 20 mM Tris-HCl pH 7.5, 200 mM NaCl
[5] = target: the molecule itself; assay: SEC; Superdex 75 column on an Akta FPLC, 0.35 mL/min, 20 mmol/L Tris-HCl, 50 mmol/L NaCl, pH 7.9; peak at 10.5 mL, between the 44 kDa and 67 kDa standards

T1 sequence (P0A8V6 whole entry): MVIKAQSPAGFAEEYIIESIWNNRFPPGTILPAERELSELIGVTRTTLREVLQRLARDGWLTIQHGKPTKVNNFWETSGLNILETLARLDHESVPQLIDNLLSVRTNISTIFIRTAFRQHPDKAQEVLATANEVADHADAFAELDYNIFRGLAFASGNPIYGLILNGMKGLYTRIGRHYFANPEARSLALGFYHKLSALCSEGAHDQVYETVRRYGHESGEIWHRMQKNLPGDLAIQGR
Chain of FadR_vc (Q9KQU8 whole entry): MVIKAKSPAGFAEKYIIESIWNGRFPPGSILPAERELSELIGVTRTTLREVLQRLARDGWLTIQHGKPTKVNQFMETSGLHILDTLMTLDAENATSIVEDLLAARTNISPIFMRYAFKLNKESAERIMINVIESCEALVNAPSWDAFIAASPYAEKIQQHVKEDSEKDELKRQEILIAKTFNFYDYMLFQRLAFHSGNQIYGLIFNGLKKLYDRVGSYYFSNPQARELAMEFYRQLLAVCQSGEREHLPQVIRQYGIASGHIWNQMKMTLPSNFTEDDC

B1: fabB_ec probe (dsDNA)
DNA 1: TCTATTAAATGGCTGATCGGACTTGTTCGGCGTACAAGTGTACGCTATTGTGCATTC
DNA 2: GAATGCACAATAGCGTACACTTGTACGCCGAACAAGTCCGATCAGCCATTTAATAGA
B1: binds (FadR_ec [1]); binds (FadR_she [2]); binds (FadR_vc).

B2: fabA_ec probe (dsDNA)
DNA 1: TTTATTCCGAACTGATCGGACTTGTTCAGCGTACACGTGTTAGCTATCCTGCGTGC
DNA 2: GCACGCAGGATAGCTAACACGTGTACGCTGAACAAGTCCGATCAGTTCGGAATAAA
B2: binds (FadR_ec [1]); binds (FadR_she [2]); binds (FadR_vc).

B3: fabA_she probe, biotinylated (dsDNA)
DNA 1: GACATTAATTAGCTGATCGGAGTTGTTTAGCTTACACGTGTTCGCTAATCTTGGCG
DNA 2: CGCCAAGATTAGCGAACACGTGTAAGCTAAACAACTCCGATCAGCTAATTAATGTC
B3 gave a Kd (FadR_she [3]) of about 436 nM.

B4: fabA_she probe (dsDNA)
DNA 1: GACATTAATTAGCTGATCGGAGTTGTTTAGCTTACACGTGTTCGCTAATCTTGGCG
DNA 2: CGCCAAGATTAGCGAACACGTGTAAGCTAAACAACTCCGATCAGCTAATTAATGTC
B4: binds (FadR_ec [4]).

B5: Shewanella oneidensis FadR protein (natural protein, Shewanella oneidensis MR-1, UniProt Q8ED80 1-240, looked up)
chain: MIINAKGPASFAEKYIVRSIWENKFPPGSILPAERELSELIGVTRTTLREVLQRLARDGWLKIQHGKPTRVNNFWETSGLNILETIADLNPEGFPVLVDQLLSARTNVSAIYFRGALRNNPDTAMEVLAQIHQLEDTAESFAEYDYLLHHTLAFSSGNPLYVLILNGFKGLYSRVGRYYFSSSEARQLALNFYKELELLAKAKNYLDVPALMRTYGINSGKMWLQLRDDMPSSIAQQDSH
In the case of B5, the “stoichiometry N” value [5] is reported as 2.
